Patent US20240279310A1
Where two headings read alike, the source gives them in different places.

Columns and labels:
[1] = target: recombinant human APRIL (Tonbo Biosciences) (human) (UniProt O75888); assay: cell-based or functional assay
[2] = target: recombinant human BAFF (BioLegend) (human) (UniProt Q9Y275); assay: cell-based or functional assay
[3] = target: recombinant human APRIL (Tonbo Biosciences) (human) (UniProt O75888); assay: cell-based or functional assay; design: IC50 APRIL (Δ TACI 30-110-Fc) / IC50 BAFF (Δ TACI 30-110-Fc): unit not given beside the values
[4] = target: recombinant human BAFF (BioLegend) (human) (UniProt Q9Y275); assay: cell-based or functional assay; design: IC50 APRIL (Δ TACI 30-110-Fc) / IC50 BAFF (Δ TACI 30-110-Fc): unit not given beside the values
[5] = target: recombinant human APRIL (Tonbo Biosciences) (human) (UniProt O75888); assay: cell-based or functional assay; design: IC50 APRIL (Δ TACI 30-110) / IC50 BAFF (Δ TACI 30-110): unit not given beside the values
[6] = target: recombinant human BAFF (BioLegend) (human) (UniProt Q9Y275); assay: cell-based or functional assay; design: IC50 APRIL (Δ TACI 30-110) / IC50 BAFF (Δ TACI 30-110): unit not given beside the values
[7] = target: recombinant human BAFF (BioLegend) (human) (UniProt Q9Y275)
[8] = target: APRIL+BAFF (15 nM APRIL+10 nM BAFF) in combination; assay: cell-based or functional assay

TACI 13-118-Fc (WT TACI 13-118, SEQ ID NO:131, fused to the Fc of SEQ ID NO: 73) (Fc fusion), sequence (chain): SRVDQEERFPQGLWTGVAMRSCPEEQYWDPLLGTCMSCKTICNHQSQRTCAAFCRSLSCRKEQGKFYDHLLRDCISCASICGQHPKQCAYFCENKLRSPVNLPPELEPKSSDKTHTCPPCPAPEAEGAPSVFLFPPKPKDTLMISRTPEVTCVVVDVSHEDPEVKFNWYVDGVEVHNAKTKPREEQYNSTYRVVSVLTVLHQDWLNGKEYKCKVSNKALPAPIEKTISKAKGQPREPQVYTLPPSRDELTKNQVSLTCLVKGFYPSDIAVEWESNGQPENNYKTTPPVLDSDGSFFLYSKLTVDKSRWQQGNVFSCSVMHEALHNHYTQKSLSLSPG
recombinant human APRIL (Tonbo Biosciences) (human), sequence (O75888 105-250 limits assumed): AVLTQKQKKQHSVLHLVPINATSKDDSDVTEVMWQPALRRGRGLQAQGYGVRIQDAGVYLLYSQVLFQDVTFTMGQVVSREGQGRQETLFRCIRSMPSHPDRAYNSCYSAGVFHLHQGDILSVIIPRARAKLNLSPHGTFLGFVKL
TACI 30-110-Fc (WT TACI 30-110, SEQ ID NO:130, fused to the Fc of SEQ ID NO: 73) (Fc fusion), sequence (chain): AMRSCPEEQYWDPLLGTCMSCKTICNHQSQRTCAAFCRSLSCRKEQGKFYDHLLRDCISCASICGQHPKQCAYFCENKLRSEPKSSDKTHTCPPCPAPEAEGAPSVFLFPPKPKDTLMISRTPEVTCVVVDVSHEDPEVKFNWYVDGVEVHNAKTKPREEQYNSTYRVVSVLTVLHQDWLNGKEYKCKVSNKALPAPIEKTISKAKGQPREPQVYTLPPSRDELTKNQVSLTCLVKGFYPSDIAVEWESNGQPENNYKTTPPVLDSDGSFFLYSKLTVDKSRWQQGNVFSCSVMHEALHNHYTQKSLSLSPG
Telitacicept/Tai'ai (RemeGen) (Fc fusion), sequence (chain): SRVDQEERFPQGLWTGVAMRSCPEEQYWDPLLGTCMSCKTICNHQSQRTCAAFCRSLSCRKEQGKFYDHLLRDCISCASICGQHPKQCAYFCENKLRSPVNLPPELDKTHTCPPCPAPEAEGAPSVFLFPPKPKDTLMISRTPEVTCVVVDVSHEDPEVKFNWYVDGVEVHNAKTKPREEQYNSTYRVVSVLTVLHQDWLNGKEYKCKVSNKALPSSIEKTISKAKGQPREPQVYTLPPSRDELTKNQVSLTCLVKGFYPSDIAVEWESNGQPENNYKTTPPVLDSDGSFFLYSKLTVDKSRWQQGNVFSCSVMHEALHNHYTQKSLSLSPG

Row | Substance | APRIL IC50 (pM) [1] [pM] | APRIL IC50 (Δ WT) [1] | BAFF IC50 (pM) [2] [pM] | BAFF IC50 (Δ WT) [2] | also measured
1 | 27 TACI CRD2-Fc (TACI vTD SEQ ID NO:27, Q75E/R84Q) (Fc fusion) | 11800 | 0.96 | 1460 | 0.79 | IC50 (nM) APRIL [3]: 262 nM; IC50 APRIL (Δ TACI 30-110-Fc) [3]: 0.07; IC50 (nM) BAFF [4]: 1390 nM; IC50 BAFF (Δ TACI 30-110-Fc) [4]: 0.24
2 | 29 TACI CRD2-Fc (TACI vTD SEQ ID NO:29, K77E/A101D/Y102D) (Fc fusion) | 2910 | 0.24 | 1180 | 0.64 | IC50 (nM) APRIL [3]: 339 nM; IC50 APRIL (Δ TACI 30-110-Fc) [3]: 0.09; IC50 (nM) BAFF [4]: 1340 nM; IC50 BAFF (Δ TACI 30-110-Fc) [4]: 0.23
3 | BAFF-R ECD (control) (receptor) | – | – | 53200 | 28.7 | –
4 | TACI 13-118, with K77E/F78Y/Y102D, fused to the Fc of SEQ ID NO:73 (Fc fusion) | 13200 | 1.07 | 1990 | 1.07 | IC50 (nM) APRIL [5]: 848 nM; IC50 APRIL (Δ TACI 30-110) [5]: 0.2; IC50 (nM) BAFF [6]: 2050 nM; IC50 BAFF (Δ TACI 30-110) [6]: 0.46
5 | TACI 13-118-Fc (WT TACI 13-118, SEQ ID NO:131, fused to the Fc of SEQ ID NO: 73) (Fc fusion) | – | – | 7900 | 4.26 | IC50 (nM) APRIL [3]: 9100 nM; IC50 APRIL (Δ TACI 30-110-Fc) [3]: 2.37; IC50 (nM) BAFF [4]: 7700 nM; IC50 BAFF (Δ TACI 30-110-Fc) [4]: 1.33; IC50 (nM) APRIL [5]: 7810 nM; IC50 APRIL (Δ TACI 30-110) [5]: 1.81; IC50 (nM) BAFF [6]: 8450 nM; IC50 BAFF (Δ TACI 30-110) [6]: 1.88
6 | TACI 30-110-Fc (WT TACI 30-110, SEQ ID NO:130, fused to the Fc of SEQ ID NO: 73) (Fc fusion) | – | – | – | – | IC50 (nM) APRIL [3]: 3850 nM; IC50 APRIL (Δ TACI 30-110-Fc) [3]: 1; IC50 (nM) BAFF [4]: 5770 nM; IC50 BAFF (Δ TACI 30-110-Fc) [4]: 1; IC50 (nM) APRIL [5]: 4320 nM; IC50 APRIL (Δ TACI 30-110) [5]: 1; IC50 (nM) BAFF [6]: 4490 nM; IC50 BAFF (Δ TACI 30-110) [6]: 1
7 | TACI vTD-Fc with the vTD of SEQ ID NO: 23 (A101D) (Fc fusion) | 8380 | 0.68 | 1830 | 0.99 | –
8 | TACI vTD-Fc with the vTD of SEQ ID NO: 24 (K77E, R84Q) (Fc fusion) | 4260 | 0.35 | 2260 | 1.22 | –
9 | TACI vTD-Fc with the vTD of SEQ ID NO: 25 (K77E, A101D) (Fc fusion) | 2040 | 0.17 | 1960 | 1.06 | –
10 | TACI vTD-Fc with the vTD of SEQ ID NO: 30 (R84Q) (Fc fusion) | 566 | 0.05 | 5490 | 2.96 | IC50 (read off the curve) [7]: 0.001 µM
11 | TACI vTD-Fc with the vTD of SEQ ID NO: 32 (K77E) (Fc fusion) | 159 | 0.01 | 1540 | 0.83 | –
12 | TACI vTD-Fc with the vTD of SEQ ID NO: 177 (Q75E) (Fc fusion) | 1940 | 0.16 | 1460 | 0.79 | –
13 | TACI vTD-Fc with the vTD of SEQ ID NO: 178 (Q75E, K77E) (Fc fusion) | 10700 | 0.87 | 1890 | 1.02 | –
14 | TACI vTD-Fc with the vTD of SEQ ID NO: 179 (Q75E, F78Y) (Fc fusion) | 13400 | 1.09 | 1790 | 0.97 | –
15 | TACI vTD-Fc with the vTD of SEQ ID NO: 180 (Q75E, A101D) (Fc fusion) | 20000 | 1.62 | 2360 | 1.27 | –
16 | TACI vTD-Fc with the vTD of SEQ ID NO: 181 (Q75E, Y102D) (Fc fusion) | 11100 | 0.9 | 2150 | 1.16 | –
17 | TACI vTD-Fc with the vTD of SEQ ID NO: 182 (K77E, F78Y, R84Q) (Fc fusion) | 10100 | 0.82 | 2210 | 1.19 | –
18 | TACI vTD-Fc with the vTD of SEQ ID NO: 183 (F78Y) (Fc fusion) | 176 | 0.01 | 1640 | 0.88 | –
19 | TACI vTD-Fc with the vTD of SEQ ID NO: 184 (F78Y, R84Q) (Fc fusion) | 2620 | 0.21 | 2260 | 1.22 | –
20 | TACI vTD-Fc with the vTD of SEQ ID NO: 185 (F78Y, A101D) (Fc fusion) | 2020 | 0.16 | 1850 | 1 | –
21 | TACI vTD-Fc with the vTD of SEQ ID NO: 186 (F78Y, Y102D) (Fc fusion) | 8490 | 0.69 | 1960 | 1.06 | –
22 | TACI vTD-Fc with the vTD of SEQ ID NO: 187 (R84Q, A101D) (Fc fusion) | 11200 | 0.91 | 2350 | 1.27 | –
23 | TACI vTD-Fc with the vTD of SEQ ID NO: 188 (R84Q, Y102D) (Fc fusion) | 12300 | 1 | 1860 | 1.01 | –
24 | TACI vTD-Fc with the vTD of SEQ ID NO: 189 (A101D, Y102D) (Fc fusion) | 33600 | 2.72 | 1950 | 1.05 | –
25 | TACI vTD-Fc with the vTD of SEQ ID NO: 190 (Y102D) (Fc fusion) | 11600 | 0.94 | 1860 | 1 | –
26 | TACI vTD-Fc with the vTD of SEQ ID NO: 191 (K77E, F78Y) (Fc fusion) | 10100 | 0.82 | 1970 | 1.06 | –
27 | TACI vTD-Fc with the vTD of SEQ ID NO: 192 (K77E, Y102D) (Fc fusion) | 891 | 0.07 | 2180 | 1.17 | –
28 | Telitacicept/Tai'ai (RemeGen) (Fc fusion) | – | – | – | – | IC50 (pM) BAFF + APRIL [8]: 16800 pM
